Experimental findings from patent publication US20240301031A1 (JIANGSU HENGRUI PHARMACEUTICALS, published 2024) are described below.

In experiment [1] the target is T1, BAFF (ACROBiosystems, BAF-H5248) (UniProt Q9Y275 134-285).
T1 construct: Bought protein used in the ELISA with coated test sample
Briefly: ELISA, fusion protein coated, BAFF titrated, Anti-His-HRP. The method, then: The binding activity of the TACI fusion proteins for BAFF and APRIL was assayed by the ELISA method (coating a test fusion protein sample). The specific procedures were as follows:
The test sample was diluted to 2 μg/mL with a PBS (BasalMedia, B320) buffer at pH 7.4 and added to a 96-well microplate (Corning, 3590) at 100 μL/well. The plate was incubated at 4° C. overnight. After the liquid was discarded, 300 μL of 5% skim milk (BD, 232100) diluted with PBS was added to each well for blocking, and the plate was incubated at 37° C. for 2 h. After the blocking was completed, the blocking solution was discarded, and the plate was washed 3 times with a PBST buffer (PBS at pH 7.4 containing 0.1% tween-20). 100 μL of BAFF (ACROBiosystems, BAF-H5248) or APRIL (R&D Systems, 5860-AP-010/CF) diluted in a gradient was added to each well, and the plate was incubated at 37° C. for 1 h. After the incubation, the plate was washed 3 times with PBST. When detecting the binding to BAFF, 100 μL of Anti-His-HRP (Sino biological, 105327-MM02T-H, diluted at a ratio of 1:2000) was added to each well; when detecting the binding to APRIL, 100 μL of anti-HA-HRP (Abcam, ab1190, diluted at a ratio of 1:4000) was added to each well. The plate was incubated at 37° C. for 1 h. The plate was washed 3 times with PBST. 100 μL of TMB chromogenic substrate (KPL, 5120-0077) was added to each well, and the plate was incubated at room temperature for 10-15 min. The reaction was stopped by adding 50 μL of 1 M H₂SO₄ to each well. The plate was read for absorbance values at 450 nm on a microplate reader, the binding curves of the antibodies to an antigen were fitted with software, and the EC₅₀ values were calculated.

Experiment [2] has as its target T2, human BAFF (10056-HNCH, Sino biological) (human, UniProt Q9Y275 134-285).
T2 construct: Bought protein
The experiment can be described thus: competition ELISA: biotin-labeled BAFF to coated BAFF-R. The method, then:
The blocking activity of the antibodies and the fusion proteins for receptors and ligands such as BAFF/BAFF-R, BAFF/BCMA, BAFF/TACI, APRIL/BCMA, APRIL/TACI, and p40/IL-12R1 was assayed by the ELISA method. The specific procedures were as follows:
A receptor protein was diluted to 2 μg/mL with PBS at pH 7.4 (BasalMedia, B320) and added to a 96-well microplate (Corning, 3590) at 100 μL/well. The plate was incubated at 4° C. overnight. After the liquid was discarded, 200 μL of 1% Casein blocking solution (Thermo, 37528) was added to each well for blocking, and the plate was incubated at 37° C. for 2 h. After the blocking was completed, the blocking solution was discarded, and the plate was washed 3 times with a PBST buffer (PBS at pH 7.4 containing 0.1% tween-20) for later use. A biotin-labeled ligand protein at a fixed concentration was mixed with the antibody or fusion protein diluted in gradient, pre-incubated at 37° C. for 30 min, and added to a blocked microplate. The plate was incubated at 37° C. for 1.5 h. After the incubation was completed, the plate was washed 3 times with PBST. 100 μL of streptavidin-HRP (Invitrogen, 434323, diluted at a ratio of 1:4000) was added to each well, and the plate was incubated at 37° C. for 1 h. The supernatant was removed, and the plate was washed 3 times with PBST. 100 μL of TMB chromogenic substrate (KPL, 5120-0077) was added to each well, and the plate was incubated at room temperature for 10-15 min. The reaction was stopped by adding 50 μL of 1 M H₂SO₄ to each well. The plate was read for absorbance values at 450 nm on a microplate reader, the curves for the inhibition of the binding of the ligands to the receptors were fitted with software, and the IC₅₀ values were calculated.

The target of experiment [3] is T3, human APRIL (5860-AP-010/CF, R&D Systems) (human, UniProt O75888 115-250, limits assumed).
T3 sequence (looked up): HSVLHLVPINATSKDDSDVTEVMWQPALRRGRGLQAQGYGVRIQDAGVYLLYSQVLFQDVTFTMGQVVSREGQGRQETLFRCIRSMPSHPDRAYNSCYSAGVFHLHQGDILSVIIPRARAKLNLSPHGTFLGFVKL
The experiment can be described thus: cell-based or functional assay.

The target in experiment [4] is BAFF (R&D Systems, 7537-BF) (UniProt Q9Y275 134-285). Briefly: cell-based or functional assay.

B1: TACI-9-15Fc5 fusion protein (Fc fusion)
chain: STSCREEQGEFYDHLLRDCISCASICGQHPKQCAAFCEDKTHTCPPCPAPEAEGAPSVFLFPPKPKDTLMISRTPEVTCVVVDVSHEDPEVKFNWYVDGVEVHNAKTKPREEQYNSTYRVVSVLTVLHQDWLNGKEYKCKVSNKALPSSIEKTISKAKGQPREPQVYTLPPSRDELTKNQVSLTCLVKGFYPSDIAVEWESNGQPENNYKTTPPVLDSDGSFFLYSKLTVDKSRWQQGNVFSCSVMHEALHNHYTQKSLSLSPGK
notes: Full-length chain
The molecule B1 yielded an EC50 in experiment [1] of 8.89 nM. The half-inhibitory concentration (IC50) in experiment [2] came to 1.44 nM.

B2: TACI-9-15Fc6 fusion protein (Fc fusion)
chain: STSCREEQGEFYDHLLRDCISCASICGQHPKQCAAFCEEPKSSDKTHTCPPCPAPEAEGAPSVFLFPPKPKDTLMISRTPEVTCVVVDVSHEDPEVKFNWYVDGVEVHNAKTKPREEQYNSTYRVVSVLTVLHQDWLNGKEYKCKVSNKALPSSIEKTISKAKGQPREPQVYTLPPSRDELTKNQVSLTCLVKGFYPSDIAVEWESNGQPENNYKTTPPVLDSDGSFFLYSKLTVDKSRWQQGNVFSCSVMHEALHNHYTQKSLSLSPGK
notes: Full-length chain
With B2, the EC50 in experiment [1] is 8.48 nM. Further, the “IC50 (nM) for the inhibition of the APRIL-induced B cell proliferation” value in experiment [3] is 0.14 nM. The “IC50 (nM) for the inhibition of the BAFF-induced B cell proliferation” value in experiment [4] came out at 0.0481 nM. Further, in experiment [2], the 50% inhibitory concentration (IC50) came out at 1.87 nM.

B3: TACI-9-15Fc8 fusion protein (Fc fusion)
chain: STSCREEQGEFYDHLLRDCISCASICGQHPKQCAAFCEEPKSSDKTHTCPPCPAPEAEGAPSVFLFPPKPKDTLMISRTPEVTCVVVDVSHEDPEVKFNWYVDGVEVHNAKTKPREEQYNSTYRVVSVLTVLHQDWLNGKEYKCKVSNKALPSSIEKTISKAKGQPREPQVYTLPPSRDELTKNQVSLTCLVKGFYPSDIAVEWESNGQPENNYKTTPPVLDSDGSFFLYSKLTVDKSRWQQGNVFSCSVMHEALHNHYTQKSLSLSPGGGGSSTSCREEQGEFYDHLLRDCISCASICGQHPKQCAAFCESK
notes: Full-length chain
Turning to B3, a half-maximal response in experiment [1] (EC50) required 10.5 nM. Moreover, in experiment [3], the “IC50 (nM) for the inhibition of the APRIL-induced B cell proliferation” value was 0.00477 nM. Besides, the “IC50 (nM) for the inhibition of the BAFF-induced B cell proliferation” value in experiment [4] was 0.0291 nM. The 50% inhibitory concentration (IC50) in experiment [2] was 1.56 nM.

B4: TACI-9-15Fc7 fusion protein (Fc fusion)
chain: STSCREEQGEFYDHLLRDCISCASICGQHPKQCAAFCEEPKSSDKTHTCPPCPAPEAEGAPSVFLFPPKPKDTLMISRTPEVTCVVVDVSHEDPEVKFNWYVDGVEVHNAKTKPREEQYNSTYRVVSVLTVLHQDWLNGKEYKCKVSNKALPSSIEKTISKAKGQPREPQVYTLPPSRDELTKNQVSLTCLVKGFYPSDIAVEWESNGQPENNYKTTPPVLDSDGSFFLYSKLTVDKSRWQQGNVFSCSVMHEALHNHYTQKSLSLSPGGGGSSTSCREEQGEFYDHLLRDCISCASICGQHPKQCAAFCEQK
notes: Full-length chain
B4 yielded an EC50 in experiment [1] of 8.95 nM. The “IC50 (nM) for the inhibition of the APRIL-induced B cell proliferation” value in experiment [3] came out at 0.00481 nM. For the same molecule, the “IC50 (nM) for the inhibition of the BAFF-induced B cell proliferation” value in experiment [4] was found to be 0.0244 nM. Besides, the IC50 in experiment [2] worked out at 1.38 nM.

B5: TACI-9-15Fc9 fusion protein (Fc fusion)
chain: STSCREEQGEFYDHLLRDCISCASICGQHPKQCAAFCEEPKSSDKTHTCPPCPAPEAEGAPSVFLFPPKPKDTLMISRTPEVTCVVVDVSHEDPEVKFNWYVDGVEVHNAKTKPREEQYNSTYRVVSVLTVLHQDWLNGKEYKCKVSNKALPSSIEKTISKAKGQPREPQVYTLPPSRDELTKNQVSLTCLVKGFYPSDIAVEWESNGQPENNYKTTPPVLDSDGSFFLYSKLTVDKSRWQQGNVFSCSVMHEALHNHYTQKSLSLSPGGGGSSTSCREEQGEFYDHLLRDCISCASICGQHPKQCAAFCESS
notes: Full-length chain
In turn, B5 returned a concentration for a half-maximal effect (EC50) in experiment [1] of 8.94 nM. Besides, in experiment [3], the “IC50 (nM) for the inhibition of the APRIL-induced B cell proliferation” value was 0.00947 nM. Further, the “IC50 (nM) for the inhibition of the BAFF-induced B cell proliferation” value in experiment [4] was 0.0262 nM. Moreover, in experiment [2], the 50% inhibitory concentration (IC50) is 1.19 nM.
